The series has as its system Escherichia coli TOP10. Put plainly: shrunken log2 fold change of peptide-encoding DNA abundance (4.5 h post-induction vs induction); higher = less antimicrobial activity (less host growth inhibition). The settings on record: time post-induction: 4.5 h; library: site-saturation at positions 5, 18, 19, 20.
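Further: peptides expressed intracellularly from a pBAD plasmid library in pooled LB shake-flask culture, induced with 0.3% L-arabinose, DNA abundance read by NGS, three biological replicates, DESeq2 with apeglm shrinkage.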

RRIRPRPPRLPRPRPRPFSIPRP: the “shrunken log2 fold change” value is -0.164. The same measure for RRIRYRPPRLPRPRPRPLCNPRP: -0.0925; for RRIRCRPPRLPRPRPRPFIWPRP: -0.717; for RRIRLRPPRLPRPRPRPCHKPRP: -0.278. Under RRIRKRPPRLPRPRPRPQETPRP stands -0.0167; under RRIRYRPPRLPRPRPRPKRSPRP, -0.113; under RRIRHRPPRLPRPRPRPGLEPRP, 0.00016. The same measure for RRIRPRPPRLPRPRPRPCTQPRP: -0.106.

RRIRVRPPRLPRPRPRPHQPPRP: the “shrunken log2 fold change” value is 0.0593. The same measure for RRIRGRPPRLPRPRPRPSRYPRP: -0.0843. The same measure for RRIRERPPRLPRPRPRPENGPRP: -0.025. The same measure for RRIRTRPPRLPRPRPRPPEDPRP: -0.0168; for RRIRPRPPRLPRPRPRPSIEPRP: -0.0734; for RRIRARPPRLPRPRPRPEHLPRP: 0.108. With RRIRGRPPRLPRPRPRPAYYPRP, the “shrunken log2 fold change” value was -0.0149. On to RRIRKRPPRLPRPRPRPATVPRP, for which the “shrunken log2 fold change” value stood at 0.0874. Under RRIRLRPPRLPRPRPRPWGPPRP stands -0.24; under RRIRARPPRLPRPRPRPGVTPRP, 0.611; under RRIRERPPRLPRPRPRPHFFPRP, -0.154. Regarding RRIRLRPPRLPRPRPRPDTRPRP, the “shrunken log2 fold change” value is -0.278. Under RRIRSRPPRLPRPRPRPGPEPRP stands 0.221; under RRIRERPPRLPRPRPRPGYWPRP, -0.0572. The same measure for RRIRCRPPRLPRPRPRPMIFPRP: -0.369; for RRIRSRPPRLPRPRPRPVMCPRP: -0.173.

For the sequence RRIRDRPPRLPRPRPRPKTKPRP, the “shrunken log2 fold change” value was -0.0788. The same measure for RRIRRRPPRLPRPRPRPICYPRP: -0.0102; for RRIRCRPPRLPRPRPRPSFTPRP: -0.668; for RRIRHRPPRLPRPRPRPQMRPRP: 0.209. Turning to RRIRERPPRLPRPRPRPYACPRP, the “shrunken log2 fold change” value was -0.0634. Under RRIRARPPRLPRPRPRPVRQPRP stands 0.855; under RRIRWRPPRLPRPRPRPLWFPRP, 0.134.

RRIRSRPPRLPRPRPRPLPMPRP: the “shrunken log2 fold change” value amounted to 0.256. In the case of RRIRYRPPRLPRPRPRPRHNPRP, the “shrunken log2 fold change” value was -0.477. Under RRIRKRPPRLPRPRPRPNVFPRP stands 0.154. The same measure for RRIRPRPPRLPRPRPRPAKPPRP: 0.196; for RRIRLRPPRLPRPRPRPGHNPRP: -0.371; for RRIRSRPPRLPRPRPRPQTRPRP: 0.181. The same measure for RRIRKRPPRLPRPRPRPKTHPRP: 0.4. In the case of RRIRHRPPRLPRPRPRPKIKPRP, the “shrunken log2 fold change” value was -0.601. Under RRIRERPPRLPRPRPRPQYWPRP stands -0.617. Under RRIRDRPPRLPRPRPRPNIIPRP stands -0.117; under RRIRGRPPRLPRPRPRPTCMPRP, 0.879; under RRIRMRPPRLPRPRPRPDNLPRP, -0.205. Under RRIRERPPRLPRPRPRPRIDPRP stands -0.0634; under RRIRKRPPRLPRPRPRPLISPRP, 0.0452; under RRIRDRPPRLPRPRPRPKTSPRP, 0.0412. With RRIRARPPRLPRPRPRPETAPRP, the “shrunken log2 fold change” value amounted to 0.236. The same measure for RRIRCRPPRLPRPRPRPIDPPRP: -0.18; for RRIRARPPRLPRPRPRPFFPPRP: 0.527; for RRIRKRPPRLPRPRPRPLWYPRP: -0.511. Under RRIRHRPPRLPRPRPRPCWIPRP stands -0.00991; under RRIRKRPPRLPRPRPRPRVEPRP, 0.144; under RRIRKRPPRLPRPRPRPTDTPRP, 0.261. The same measure for RRIRPRPPRLPRPRPRPVSFPRP: 0.0766; for RRIRFRPPRLPRPRPRPVAMPRP: -0.0306; for RRIRRRPPRLPRPRPRPPIPPRP: 0.271.

For RRIRSRPPRLPRPRPRPEGNPRP, the “shrunken log2 fold change” value is -0.0126.

In the case of RRIRGRPPRLPRPRPRPYRFPRP, the “shrunken log2 fold change” value is 0.0893. Under RRIRYRPPRLPRPRPRPMWYPRP stands -0.884; under RRIRARPPRLPRPRPRPLMLPRP, 0.32; under RRIRERPPRLPRPRPRPYQIPRP, -0.388. The same measure for RRIRWRPPRLPRPRPRPHMWPRP: -0.138.

Turning to RRIRNRPPRLPRPRPRPKSGPRP, the “shrunken log2 fold change” value was 0.161.

Turning to RRIRVRPPRLPRPRPRPGVDPRP, the “shrunken log2 fold change” value was found to be 0.0334. Regarding RRIRQRPPRLPRPRPRPMQRPRP, the “shrunken log2 fold change” value is 0.416. Under RRIRKRPPRLPRPRPRPDNIPRP stands -0.0306; under RRIRPRPPRLPRPRPRPPCMPRP, -0.165; under RRIRHRPPRLPRPRPRPAWYPRP, -0.0318. As to RRIRKRPPRLPRPRPRPIERPRP, the “shrunken log2 fold change” value was 0.11. The same measure for RRIRHRPPRLPRPRPRPSYVPRP: -1.15; for RRIRSRPPRLPRPRPRPFFSPRP: -0.13; for RRIRGRPPRLPRPRPRPLQTPRP: 1.59.

On to RRIRQRPPRLPRPRPRPHKQPRP, for which the “shrunken log2 fold change” value was -0.608. Regarding RRIRSRPPRLPRPRPRPIWRPRP, the “shrunken log2 fold change” value came to 0.639.

For the sequence RRIRSRPPRLPRPRPRPYPMPRP, the “shrunken log2 fold change” value was -0.035. Under RRIRPRPPRLPRPRPRPWVRPRP stands 0.113; under RRIRFRPPRLPRPRPRPNQTPRP, 0.275. Under RRIRWRPPRLPRPRPRPWSRPRP stands -0.132; under RRIRCRPPRLPRPRPRPCAPPRP, -0.00137; under RRIRFRPPRLPRPRPRPVDPPRP, -0.228.

Consider RRIRMRPPRLPRPRPRPAVLPRP, for which the “shrunken log2 fold change” value was 0.0985. Under RRIRGRPPRLPRPRPRPIAKPRP stands 0.245; under RRIRYRPPRLPRPRPRPNTNPRP, -1.09. The same measure for RRIRPRPPRLPRPRPRPKKEPRP: 0.0526; for RRIRERPPRLPRPRPRPDIPPRP: -0.366. The same measure for RRIRYRPPRLPRPRPRPYTAPRP: 0.00143. In the case of RRIRDRPPRLPRPRPRPEKKPRP, the “shrunken log2 fold change” value is -0.0317. For RRIRTRPPRLPRPRPRPGMSPRP, the “shrunken log2 fold change” value is -0.352. Under RRIRKRPPRLPRPRPRPLYHPRP stands -0.364.

For RRIRSRPPRLPRPRPRPLPTPRP, the “shrunken log2 fold change” value came to 0.446. The same measure for RRIRDRPPRLPRPRPRPQYNPRP: -0.446. The same measure for RRIRQRPPRLPRPRPRPWMKPRP: 0.0212; for RRIRIRPPRLPRPRPRPPIYPRP: -0.592; for RRIRPRPPRLPRPRPRPEFQPRP: 0.0778.

With RRIRVRPPRLPRPRPRPMYGPRP, the “shrunken log2 fold change” value is -0.116.

For RRIRYRPPRLPRPRPRPHEVPRP, the “shrunken log2 fold change” value is -0.0317. Under RRIRRRPPRLPRPRPRPAHAPRP stands 0.407; under RRIRDRPPRLPRPRPRPMVCPRP, 0.141; under RRIRQRPPRLPRPRPRPYMQPRP, -0.239. Under RRIRPRPPRLPRPRPRPCQMPRP stands 0.0359; under RRIRLRPPRLPRPRPRPQSQPRP, -0.179; under RRIRIRPPRLPRPRPRPNSCPRP, -0.184. Under RRIRNRPPRLPRPRPRPAKYPRP stands -0.134. Consider RRIRFRPPRLPRPRPRPLTWPRP, for which the “shrunken log2 fold change” value is -0.163. As to RRIRFRPPRLPRPRPRPWGKPRP, the “shrunken log2 fold change” value was -0.221.

Take RRIRARPPRLPRPRPRPSLLPRP: the “shrunken log2 fold change” value came out at 0.321. The same measure for RRIRMRPPRLPRPRPRPCFWPRP: 0.237; for RRIRPRPPRLPRPRPRPWNGPRP: 0.0165; for RRIRGRPPRLPRPRPRPGLYPRP: 0.341.

As to RRIRMRPPRLPRPRPRPTCYPRP, the “shrunken log2 fold change” value came to 0.0375. The same measure for RRIRQRPPRLPRPRPRPCTPPRP: -0.141. Under RRIRCRPPRLPRPRPRPASSPRP stands 0.124. Under RRIRYRPPRLPRPRPRPCMGPRP stands -0.198; under RRIRMRPPRLPRPRPRPRRQPRP, 1.13. Regarding RRIRIRPPRLPRPRPRPDIHPRP, the “shrunken log2 fold change” value is -0.587. The same measure for RRIRGRPPRLPRPRPRPEISPRP: 1.5; for RRIRHRPPRLPRPRPRPLVSPRP: 0.0121; for RRIRTRPPRLPRPRPRPTVAPRP: 0.22.

Consider RRIRVRPPRLPRPRPRPMCVPRP, for which the “shrunken log2 fold change” value is 0.103.

Regarding RRIRGRPPRLPRPRPRPKQAPRP, the “shrunken log2 fold change” value was 0.865. The same measure for RRIRPRPPRLPRPRPRPHGWPRP: 0.274; for RRIRCRPPRLPRPRPRPLEFPRP: -0.245; for RRIRWRPPRLPRPRPRPNWPPRP: 0.214. For the sequence RRIRIRPPRLPRPRPRPCEYPRP, the “shrunken log2 fold change” value is -0.115. On to RRIRARPPRLPRPRPRPINQPRP, for which the “shrunken log2 fold change” value is -0.195.
